The text below walks through data of PMC2597415.

The term Km denotes the concentration of substrate that gives half-maximal velocity. In general, kcat refers to the number of substrate molecules converted per active site and unit of time at saturation. In general, kcat/Km refers to the second-order rate constant that governs catalysis at low substrate concentration.

Substrate in data set [1]: O=C(CO)[C@H](O)[C@H](O)COP(=O)(O)O
Description: coupled-enzyme spectrophotometric assay of RPE activity. The class given is biochemical, Escherichia coli. The following applies: Co2+ enzyme.

Substrate in data set [2]: O=C(CO)[C@H](O)[C@H](O)COP(=O)(O)O
The data set is described as above. The class given is biochemical, Streptococcus pyogenes. The following applies: Co2+ enzyme.

B1: ALSE (D-allulose 6-phosphate 3-epimerase) (Escherichia coli K-12; DEL196-196) (protein)
chain: MKISPSLMCMDLLKFKEQIEFIDSHADYFHIDIMDGHFVPNLTLSPFFVSQVKKLATKPLDCHLMVTRPQDYIAQLARAGADFITLHPETINGQAFRLIDEIRRHDMKVGLILNPETPVEAMKYYIHKADKITVMTVDPGFAGQPFIPEMLDKLAELKAWREREGLEYEIEVDGSCNQATYEKLMAAGADVFIVGSGLFNHAENIDEAWRIMTAQILAAKSEVQPHAKTA
For B1, in data set [1], the Km came to 3900 ± 500 µM, the turnover number (kcat) worked out at 130 ± 7 s⁻¹ and the catalytic efficiency (kcat/Km) was 33000 M⁻¹ s⁻¹.

B2: ALSE (D-allulose 6-phosphate 3-epimerase) (Escherichia coli K-12; DEL198-198) (protein)
chain: MKISPSLMCMDLLKFKEQIEFIDSHADYFHIDIMDGHFVPNLTLSPFFVSQVKKLATKPLDCHLMVTRPQDYIAQLARAGADFITLHPETINGQAFRLIDEIRRHDMKVGLILNPETPVEAMKYYIHKADKITVMTVDPGFAGQPFIPEMLDKLAELKAWREREGLEYEIEVDGSCNQATYEKLMAAGADVFIVGTSLFNHAENIDEAWRIMTAQILAAKSEVQPHAKTA
With B2, in data set [1], the Km was 5100 ± 500 µM, the turnover number (kcat) was found to be 440 ± 20 s⁻¹ and the kcat/Km stood at 86000 M⁻¹ s⁻¹.

B3: ALSE (D-allulose 6-phosphate 3-epimerase) (Escherichia coli K-12; DEL197-197) (protein)
chain: MKISPSLMCMDLLKFKEQIEFIDSHADYFHIDIMDGHFVPNLTLSPFFVSQVKKLATKPLDCHLMVTRPQDYIAQLARAGADFITLHPETINGQAFRLIDEIRRHDMKVGLILNPETPVEAMKYYIHKADKITVMTVDPGFAGQPFIPEMLDKLAELKAWREREGLEYEIEVDGSCNQATYEKLMAAGADVFIVGTGLFNHAENIDEAWRIMTAQILAAKSEVQPHAKTA
In the case of B3, in data set [1], the Km was found to be 2800 ± 600 µM, the kcat is 240 ± 14 s⁻¹ and the kcat/Km turned out to be 85000 M⁻¹ s⁻¹.

B4: RPE (D-ribulose 5-phosphate 3-epimerase) (Streptococcus pyogenes serotype M1) (protein)
chain: MSTLKIAPSILAADYANFASELARIEETDAEYVHIDIMDGQFVPNISFGADVVASMRKHSKLVFDCHLMVVDPERYVEAFAQAGADIMTIHTESTRHIHGALQKIKAAGMKAGVVINPGTPATALEPLLDLVDQVLIMTVNPGFGGQAFIPECLEKVATVAKWRDEKGLSFDIEVDGGVDNKTIRACYEAGANVFVAGSYLFKASDLVSQVQTLRTALNV
Take B4: in data set [2], the Michaelis constant (Km) came to 1200 ± 100 µM, the kcat is 3800 ± 160 s⁻¹ and the catalytic efficiency (kcat/Km) was found to be 3.2e+06 M⁻¹ s⁻¹.

B5: ALSE (D-allulose 6-phosphate 3-epimerase) (Escherichia coli K-12) (protein)
chain: MKISPSLMCMDLLKFKEQIEFIDSHADYFHIDIMDGHFVPNLTLSPFFVSQVKKLATKPLDCHLMVTRPQDYIAQLARAGADFITLHPETINGQAFRLIDEIRRHDMKVGLILNPETPVEAMKYYIHKADKITVMTVDPGFAGQPFIPEMLDKLAELKAWREREGLEYEIEVDGSCNQATYEKLMAAGADVFIVGTSGLFNHAENIDEAWRIMTAQILAAKSEVQPHAKTA
As to B5, in data set [1], the Michaelis constant (Km) is 3000 ± 300 µM, the kcat stood at 2 ± 0.8 s⁻¹ and the catalytic efficiency (kcat/Km) turned out to be 670 M⁻¹ s⁻¹.
